B1: pMB2472+pMB2673 heterodimer (crosslink α86-β108) (ligand)
alpha: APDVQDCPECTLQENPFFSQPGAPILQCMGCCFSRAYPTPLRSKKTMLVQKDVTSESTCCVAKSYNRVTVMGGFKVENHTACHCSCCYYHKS
beta: SKEPLRPRCRPINATLAVEKEGCPVCITVNTTICAGYCPTMTRVLQGVLPALPQVVCNYRDVRFESIRLPGCPRGVNPVVSYAVALSCQCALCRRSTTDCGGPKDHPC
modifications: Intersubunit disulfide between alpha Cys86 and beta Cys108 (the beta C-terminus). N-linked glycans remain, except at alpha position 52 (N52D). Beta Cys26 is free.
notes: The text says that pMB1244 or pMB2472 was the α-subunit construct; also called pMB2472 and pMB2673
B2: pMB2472+pMB2672 heterodimer (crosslink α86-β106) (ligand)
alpha: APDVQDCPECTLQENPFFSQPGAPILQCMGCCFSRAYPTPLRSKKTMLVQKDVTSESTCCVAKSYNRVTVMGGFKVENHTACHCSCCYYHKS
beta: SKEPLRPRCRPINATLAVEKEGCPVCITVNTTICAGYCPTMTRVLQGVLPALPQVVCNYRDVRFESIRLPGCPRGVNPVVSYAVALSCQCALCRRSTTDCGGPKDC
modifications: Intersubunit disulfide between alpha Cys86 and beta Cys106 (the beta C-terminus). N-linked glycans remain, except at alpha position 52 (N52D). Beta Cys26 is free.
notes: The text says that pMB1244 or pMB2472 was the α-subunit construct; also called pMB2472 and pMB2672
B3: pRM917+pMB2545 crosslinked heterodimer (ligand)
alpha: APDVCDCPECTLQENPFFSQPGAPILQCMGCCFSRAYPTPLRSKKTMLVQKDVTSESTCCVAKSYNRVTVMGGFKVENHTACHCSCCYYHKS
beta: SRPCCRPINATLAVEKEGCPVAITVNTTICAGYCPTMTRVLQGVLPALPQVVCNYRDVRFESIRLPGCPRGVNPVVSYAVALSCQCALCRRSTTDCGC
modifications: Potential intersubunit disulfides α5-β8 and α86-β102; N-linked glycans on both subunits (none at α52).
notes: Potential disulfides α5-β8 and α86-β102; also called pRM917 and pMB2545; copies: 1 + 1

Columns and labels:
rat LH receptor [1] = target: T1, rat LH receptor (rat, UniProt P16235 27-700); test: 125I-hCG competition on rat LH receptors
T1 construct: whole, on cells; CHO cells engineered to (over)express the rat LH receptor; also called rat lutropin receptor
T1 sequence (P16235 27-700): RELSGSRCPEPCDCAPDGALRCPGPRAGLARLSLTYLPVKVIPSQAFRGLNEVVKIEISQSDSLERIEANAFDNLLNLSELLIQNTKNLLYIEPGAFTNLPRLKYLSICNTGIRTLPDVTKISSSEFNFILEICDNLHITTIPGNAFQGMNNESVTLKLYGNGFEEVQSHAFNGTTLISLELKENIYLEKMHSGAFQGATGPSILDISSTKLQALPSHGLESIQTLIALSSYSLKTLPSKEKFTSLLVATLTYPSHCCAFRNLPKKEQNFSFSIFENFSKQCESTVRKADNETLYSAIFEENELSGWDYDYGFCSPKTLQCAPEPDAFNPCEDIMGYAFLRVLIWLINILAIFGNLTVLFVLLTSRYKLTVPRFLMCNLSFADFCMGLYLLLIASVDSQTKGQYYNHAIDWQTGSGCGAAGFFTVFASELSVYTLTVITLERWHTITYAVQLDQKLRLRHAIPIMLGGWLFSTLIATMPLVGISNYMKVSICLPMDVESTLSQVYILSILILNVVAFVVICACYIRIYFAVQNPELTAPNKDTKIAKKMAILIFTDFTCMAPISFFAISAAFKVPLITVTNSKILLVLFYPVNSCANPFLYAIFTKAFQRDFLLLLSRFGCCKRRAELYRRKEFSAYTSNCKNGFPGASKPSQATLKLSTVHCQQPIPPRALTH

rat LH receptor [2] = target: T1, rat LH receptor; test: competition with radioiodinated hCG for rat LH receptors

| Binder | binding result (rat LH receptor [1]) | binding result (rat LH receptor [2]) |
| --- | --- | --- |
| B1 | binds | – |
| B2 | binds | – |
| B3 | – | binds |
